B2: S. pombe single isoform (α1β) tubulin (complex)
chain 1: MREVISVHVGQAGVQIGNACWELYCLEHGIGPDGFPTENSEVHKNNSYLNDGFGTFFSETGQGKFVPRSIYVDLEPNVIDQVRTGPYKDLFHPEQMVTGKEDASNNYARGHYTVGKEMIDSVLERIRRMADNCSGLQGFLVFHSFGGGTGSGLGALLLERLNMEYGKKSNLQFSVYPAPQVSTSVVEPYNSVLTTHATLDNSDCTFMVDNEACYDICRRNLDIERPTYENLNRLIAQVVSSITASLRFAGSLNVDLNEFQTNLVPYPRIHFPLVTYSPIVSAAKAFHESNSVQEITNQCFEPYNQMVKCDPRTGRYMATCLLYRGDVIPRDVQAAVTSIKSRRTIQFVDWCPTGFKIGICYEPPQHVPGSGIAKVNRAVCMLSNTTSIAEAWSRLDHKFDLMYSKRAFVHWYVGEGMEEGEFSEAREDLAALERDYEEVGQDSMDNEMYEADEEY
chain 2: MREIVHIQAGQCGNQVGAAFWSTIADEHGLDSAGIYHGTSEAQHERLNVYFNEAAGGKYVPRAVLVDLEPGTMDAVKSGKFGNLFRPDNIIYGQSGAGNIWAKGHYTEGAELADAVLDVVRREAEACDALQGFQLTHSLGGGTGSGMGTLLLSKIREEYPDRMMATFSVAPAPKSSDTVVEPYNATLSMHQLVENSDETFCIDNEALSSIFANTLKIKSPSYDDLNHLVSAVMAGVTTSFRFPGELNSDLRKLAVNMVPFPRLHFFMVGFAPLAAIGSSSFQAVSVPELTQQMFDANNMMVAADPRHGRYLTVAALFRGKVSMKEVDEQIRSVQTKNSAYFVEWIPDNVLKAVCSVPPKDLKMSATFIGNSTSIQEIFRRLGDQFSAMFRRKAFLHWYTGEGMDEMEFTEAESNMNDLVSEYQQYQEAGIDEGDEDYEIEEEKEPLEY
notes: alpha-1 tubulin (α1) of S. pombe, from strain mmsp174 (atb2 replaced by nda2+); beta tubulin (β) of S. pombe, from strain mmsp174; Stands both as the free GTP-tubulin heterodimer and as the growing plus end of the microtubule polymerised from it; which of the two is meant is told in the assay's format and the quantity; also called GTP-tubulin; T (tubulin dimer); source: purified from S. pombe …

Data set [1] addresses S. pombe dual-isoform (α1β + α2β) tubulin (S. pombe) (UniProt P04688). In words: DIC video microscopy of microtubule growth; addition of GTP-tubulin to plus and minus ends of MTs nucleated by axoneme fragments; growth rate against tubulin concentration, linear regression, apparent rate constants; 100 mM K-PIPES, 1 mM MgSO4, 2 mM EGTA, 1 mM DTT pH 6.9, 1 mM GTP, no glycerol, 25 °C.

Data set [2] deals with the molecule itself. In words: glycerol gradient centrifugation; 5-40% glycerol gradient of purified Alp14, Alp7 and tubulin, alone or mixed; tubulin as GTP-tubulin where stated; fractions on SDS-PAGE with Coomassie staining.
Data set [3] deals with the molecule itself. In words: microtubule growth rates (VE-DIC video microscopy) against tubulin concentration, fit of a bimolecular reaction; GTP-tubulin dimer adding to and leaving the microtubule plus end; single isoform S. pombe tubulin in PEM at 25 °C, without Alp14; apparent rate constants per microtubule end in dimers.
The target in data set [4] is B2. In words: microtubule growth rates (dark-field microscopy) with Alp14, fit of a kinetic model; Alp14-facilitated pathway T + M + E = TE + M = E + (M+1); Alp14 resident at the plus end of S. pombe α1β microtubules grown from GMPCPP seeds; 6 µM or 0.5 µM tubulin, nanomolar Alp14, PEM100, 25 °C; constants are parameters fitted to or constrained by the growth data, steady state assumed. The settings on record: both partners purified.

Data set [5] concerns the target B2. The description is as above. The settings on record: both partners purified. The source holds these as a separate data set.

Turning to “S. pombe dual-isoform (α1β + α2β) tubulin (from UniProt P04688 1-455; P04689 1-449; P05219 1-448) (complex)”, in data set [1], the Kd = koff/kon (critical concentration), minus end amounted to 1900 nM; the Kd = koff/kon (critical concentration), plus end was found to be 2000 nM; the koff, minus end came to 3.1 nm/s; the koff, plus end came to 9.3 nm/s. For the same molecule, in data set [1], the kon, minus end (nm s^−1 μM^−1) was 1.6 and the kon, plus end (nm s^−1 μM^−1) is 4.7.

B1: Alp7, full length, with an N-terminal avi-tag (natural protein, S. pombe, UniProt Q9URY2 1-474, looked up)
chain: MSDIVSSSTDYSRRSPSSSSIGTNETDHTGFHEKRQGASSESLIPPAQRSSEESMPAPKLFPKLTSKPNPQLNLKDTLNKRVSDRLQALELNKSFDFSGTPRPMHPISHPLSQHKTPEFKHRKRNVESILTPKNPSLFSSSNAASQRGSLNTAPSNFAYSHSSSLQTSASSRPPVLSNGSFPRQTNTAPLNPPVHLKDNIRNSATPSTSQADIPTQYPINSTQKQQAKYEAEIEGYKAKLAGTYHEISVLQNTIVNVSGQLIAVNDQLQQLRSGKASTSPSTKDTNMRLVEGHNEETLALQRGKYTQEEVDKLIQERMEKVAEDLHAQYSAKHTQKINAFKANYARKYEATIQELQNQIGTAPNAPKISNSNWEEERRALKADNQTLQKQLEKAIQERQDMSDFLNNFKADMAKSDKLLMQQQSQQTGDLETLRLQLQALQEELRVEREERQQLIQMSEDLVIAMDQLNLEQKS
modifications: biotin on the AviTag (BirA ligase co-expressed to ensure biotinylation)
notes: Alp7 (Mia1p), TACC-family protein of S. pombe, full length; gene PCR-amplified from wild-type genomic S. pombe DNA; also called Alp7/TACC; Mia1p; source: Sf9 insect cells (baculovirus, BirA ligase co-expressed), purified on monomeric avidin agarose
For B1, the binding result in data set [2] is on record as “binds”.
By koff is commonly meant the rate constant with which the complex falls apart. What is called kon is the second-order rate constant of association. For B2, in data set [3], the off-rate (koff) came to 6.6 s⁻¹ and the kon turned out to be 5.5e+06 M⁻¹ s⁻¹.

B3: Alp14 (full length, S. pombe TOG-family microtubule polymerase) (enzyme, UniProt O94534 1-809, looked up)
chain: MSQDQEEDYSKLPLESRIVHKVWKVRLSAYEECSKSFSLSADGSDNCFELWNNQSELWKSVLTDSNVAAQEAGTAAFVAYCRFSDPSHLLKAREISVLSISEKCLTSPRAGTRENALEALMLLVEADSAAPVIESIIPSLSARSPKVIASNVAAIASLVEQFGAKVIPSKMIIPHISNLFGHADKNVRKEASRLTVNIYRWTGDPLKDLLFKDLRPVQTKELESLFAELPTEPPKQTRFLKSQQPTSEPNVETQVEEQPALENEESEPEPSDDQFDLVEEVDVLPNVDPNLETLMASSKWKDRKEALDKLLPVLSQPKIKDNDFFNLVAILTKSVSKDANIMVVINAAHCIQAMAKGLRSNFSKYASTSINALLERSKEKKANVIESLSSAMDAVLATSSLDDLAELIASFAGNKNPQIKSSCFSLFSRSFSNMTSLPSKFTVDTCAKACVPGVSDTFEPVRSAAAEALGVLMKLVGERAINQYLSPLDDIRKSKIRSFYETATVKAKAPTKKSKVKPSKQEESKVVVPSNAKAVKKSVVPSSPVVPSPRKATNKSLSMDVSKGNAFENGPLLPRPTTRPVSRGLSRGTSSSLQQKVKASTPLNSGALNETVQNLKNMELDDPAPQPAKHSRVDRYEHPKVLEDNDSTISSLESLKRENEELREQLKVEHEENISMQKQLSELKGELNTLRSARKASPIGDRKPAFMRRANTDFLELSTSPSFQRSVREFEPTRPKLYSSIDVNQRSPLASAKTNGNFTFHAELPRSPFSSRANNINPDWTKAIDLAAKLKQKITEMKQTDQRHQGLIH
notes: Alp14, S. pombe, full length; gene PCR-amplified from wild type genomic S. pombe DNA; also called Alp14/TOG
As usually defined, the Kd is the constant that tells how readily two partners part at equilibrium. As for B3, in data set [4], the Kd was determined as 6 nM, the dissociation rate constant (koff) lay within 1 to 15 s⁻¹ and the association rate constant (kon) was greater than 4e+07 M⁻¹ s⁻¹. The Kd in data set [5] was greater than 5 nM.

B4: Alp14, full length, with a C-terminal his or Avi tag (natural protein, S. pombe, UniProt O94534 1-809, looked up)
chain: MSQDQEEDYSKLPLESRIVHKVWKVRLSAYEECSKSFSLSADGSDNCFELWNNQSELWKSVLTDSNVAAQEAGTAAFVAYCRFSDPSHLLKAREISVLSISEKCLTSPRAGTRENALEALMLLVEADSAAPVIESIIPSLSARSPKVIASNVAAIASLVEQFGAKVIPSKMIIPHISNLFGHADKNVRKEASRLTVNIYRWTGDPLKDLLFKDLRPVQTKELESLFAELPTEPPKQTRFLKSQQPTSEPNVETQVEEQPALENEESEPEPSDDQFDLVEEVDVLPNVDPNLETLMASSKWKDRKEALDKLLPVLSQPKIKDNDFFNLVAILTKSVSKDANIMVVINAAHCIQAMAKGLRSNFSKYASTSINALLERSKEKKANVIESLSSAMDAVLATSSLDDLAELIASFAGNKNPQIKSSCFSLFSRSFSNMTSLPSKFTVDTCAKACVPGVSDTFEPVRSAAAEALGVLMKLVGERAINQYLSPLDDIRKSKIRSFYETATVKAKAPTKKSKVKPSKQEESKVVVPSNAKAVKKSVVPSSPVVPSPRKATNKSLSMDVSKGNAFENGPLLPRPTTRPVSRGLSRGTSSSLQQKVKASTPLNSGALNETVQNLKNMELDDPAPQPAKHSRVDRYEHPKVLEDNDSTISSLESLKRENEELREQLKVEHEENISMQKQLSELKGELNTLRSARKASPIGDRKPAFMRRANTDFLELSTSPSFQRSVREFEPTRPKLYSSIDVNQRSPLASAKTNGNFTFHAELPRSPFSSRANNINPDWTKAIDLAAKLKQKITEMKQTDQRHQGLIH
notes: Alp14, TOG-family microtubule polymerase of S. pombe, full length; gene PCR-amplified from wild-type genomic S. pombe DNA; also called Alp14/TOG; full length Alp14
For B4, the binding result in data set [2] is “binds”.

(Values after publication PMC4749977, “Alp7/TACC-Alp14/TOG generates long-lived, fast-growing MTs by an unconventional mechanism” (Scientific Reports, 2016).)
